The target of the assay is His-K62-HA expressed in E. coli without the eukaryotic N-terminal signal sequence (Saccharomyces paradoxus). Description: denaturing SDS-PAGE and western blot (heat- and detergent-resistant oligomers); E. coli membrane fractions treated with urea before boiling with gel loading buffer; high molecular weight complex taken apart into discrete oligomers.

Bounds are passed on as bounds.

What is called stoichiometry N is the number of molecules, sites or subunits per partner or assembly.

“His-K62-HA expressed in E. coli without the eukaryotic N-terminal signal sequence (natural protein)” returned a stoichiometry N of more than 9.

The values are drawn from paper PMC12691639.
